The values that follow are results of earlier work, collected in article PMC4819957.

Some results are limits rather than exact numbers.

The target in the series is Pex3 (Homo sapiens) (UniProt P56589).
Sequence of UniProt P56589 (P56589 whole entry): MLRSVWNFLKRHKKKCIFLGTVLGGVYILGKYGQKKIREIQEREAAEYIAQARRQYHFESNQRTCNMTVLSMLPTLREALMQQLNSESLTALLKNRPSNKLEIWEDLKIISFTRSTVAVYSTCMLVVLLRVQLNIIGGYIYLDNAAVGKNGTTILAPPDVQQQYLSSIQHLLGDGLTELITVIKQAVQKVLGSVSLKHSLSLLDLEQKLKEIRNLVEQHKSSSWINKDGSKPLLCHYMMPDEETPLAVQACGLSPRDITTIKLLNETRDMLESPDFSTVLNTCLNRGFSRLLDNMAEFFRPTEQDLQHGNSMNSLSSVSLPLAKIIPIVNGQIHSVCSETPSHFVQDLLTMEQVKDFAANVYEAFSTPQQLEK

For the substance Pex19 (from UniProt P40855), the dissociation constant (Kd) was below 10 nM.

In general, Kd refers to a measure of binding affinity in units of concentration.
